The subject of series [1] is mesothelioma-derived cells expressing mesothelin (EM-meso cells). The series is described as follows: EM-meso subcutaneous xenograft in NSG mice, tumor volume by caliper. The series is classed as in vivo, mouse. The following applies: 4 million T cells i.v. day 20. As for the experimental part:
20 days following tumor implantation, each animal was injected intravenously with 5×10^6 T cells that were stimulated with anti-CD3/anti-CD28 stimulator beads followed lentiviral transduction with a series of CD3ζ-based CAR with or without a costimulatory domain (SS1-ζ, SS1-BBζ and SS1-28ζ) or the mesothelin-specific KIR-based CARs, SS1-KIRS2 with DAP12. Mock transduced T cells (NTD) were used as a control. Tumor volume was measured by caliper at the indicated times (n=7 mice per group). […] The frequency of human CD45+ T cells was assessed at the end of the experiment by flow cytometry, and data are expressed as a percentage of total viable cells in the blood, spleen and tumor digest. […] The frequency of CD3+ human lymphocytes in tumors at day 30 (10 days following CAR T infusion) was assessed by flow cytometry. […] 4 million T cells expressing DAP12 and dsRed (DAP12), SS1-28z or SS1-KIRS2 and DAP12 (SS1-KIRS2) were injected intravenously on day 20, and tumor volume was assessed over time via caliper measurement. […] Antigen-specific cytotoxicity was assessed by coculturing with firefly luciferase expressing EM-meso cells or EMp cells (parental EM cells lacking mesothelin expression) at indicated E:T ratios for 18 hours. […]
Animal models can also be used to measure activity of a CAR-expressing cell. […] Animals are assessed for tumor progression at weekly intervals. […]

Series [2] deals with K562 cells engineered to express mesothelin. Description: Antigen-triggered cytokine secretion. The series is classed as cell-based, human. The note with it: Example 14, T cells:targets 2:1, 24 hours, ELISA. The protocol:
Cytokine production of the huMeso-KIRS2-expressing CAR cells was also assessed. Primary human T cells were simulated, transduced with the huMes-KIRS2 and expanded as previously described. Following expansion, the transduced T cells were mixed with K562 (mesothelin-negative cells, empty bars) or K562 cells engineered to express mesothelin (black bars) at a ratio of 2:1. Cytokine concentrations (IFNγ and IL-2) were determined in supernatants following 24 hours of stimulation by ELISA for the indicated cytokines.

The subject of another series is K562-meso-HLACw. Description: KIR2DL3 suppression of KIR-CAR cytotoxicity, 51Cr release against K562-meso-HLACw. The format is cell-based, human. The following applies: coexpressed with SS1-KIRS2/DAP12, HLA-Cw on the target cells. As for the experimental part:
K562 cells (K562) or K562 cells expressing mesothelin (K562-meso) were transduced with the HLA-Cw3 allele followed by fluorescence activated cell sorting to obtain K562 cells expressing HLA-Cw with (K562-meso-HLACw) or without (K562-HLACw) expression of mesothelin. HLA-Cw3 expression was assessed by flow cytometry using an APC-conjugated monoclonal antibody that recognizes HLA-A, B and C alleles (clone W6/32).
Primary human T cells were stimulated with CD3/28 microbeads followed by lentiviral transduction with SS1-KIRS2 and DAP12 (SS1-KIRS2) or mock transduced (NTD) in combination with wild-type KIR2DL3. The T cells were expanded until the end of log-phase growth. The surface expression of the mesothelin-specific CAR and KIR2DL3 was determined by staining with mesothelin-Fc followed by PE-conjugated goat-anti-human Fc and a monoclonal antibody to the KIR2DL3 ectodomain.
T cell that were generated and characterized as described in FIG. 21 were mixed with 51-Cr labeled target K562 cells that were generated and characterized as described in FIG. 22. Cytotoxicity was determined by measuring the fraction of ^51Cr released into the supernatant at 4 hours compared target cells without effector cells.

B1: DAP12: T cells expressing DAP12 and dsRed; DAP12 adaptor molecule, SEQ ID NO: 368 (protein)
chain: MGGLEPCSRFLLLPLLLAVSGLRPVQVQAQSDCSCSTVSPGVLAGIVMGDLVLTVLIALAVYFLGRLVPRGRGAAEAATRKQRITETESPYQELQGQRSDVYSDLNTQRPYYK
As to B1, the “tumor eradication by DAP12-modified T cells” value in series [1] is listed as “require the mesothelin-specific KIR-based CAR for tumor eradication”.

B2: M17: human anti-mesothelin scFv, SEQ ID NO: 246 (protein)
scFv: EVQLVESGGGLVQPGRSLRLSCAASGFTFDDYAMHWVRQAPGKGLEWVSGISWNSGSTGYADSVKGRFTISRDNAKNSLYLQMNSLRAEDTALYYCAKDSSSWYGGGSAFDIWGQGTMVTVSSGGGGSGGGGSGGGGSSSELTQDPAVSVALGQTVRITCQGDSLRSYYASWYQQKPGQAPVLVIYGKNNRPSGIPDRFSGSSSGNTASLTITGAQAEDEADYYCNSRGSSGNHYVFGTGTKVTVL
Turning to B2, the IL-2 production entry in series [2] is “produced IL-2”.

B3: KIR2DL3: wild-type KIR2DL3 inhibitory receptor co-expressed in T cells (SEQ ID NO: 345) (protein)
chain: MSLMVVSMVCVGFFLLQGAWPHEGVHRKPSLLAHPGPLVKSEETVILQCWSDVRFQHFLLHREGKFKDTLHLIGEHHDGVSKANFSIGPMMQDLAGTYRCYGSVTHSPYQLSAPSDPLDIVITGLYEKPSLSAQPGPTVLAGESVTLSCSSRSSYDMYHLSREGEAHERRFSAGPKVNGTFQADFPLGPATHGGTYRCFGSFRDSPYEWSNSSDPLLVSVTGNPSNSWPSPTEPSSETGNPRHLHVLIGTSVVIILFILLLFFLLHRWCCNKKNAVVMDQEPAGNRTVNREDSDEQDPQEVTYAQLNHCVFTQRKITRPSQRPKTPPTDIIVYTELPNAEP
Take B3: the “effect on antigen specific cytotoxicity of co-expressed KIR CAR” value with K562-meso-HLACw is recorded as “can suppress antigen specific cytotoxicity”.

B4: M16: human anti-mesothelin scFv, SEQ ID NO: 245 (protein)
scFv: EVQLVESGGGLVQPGRSLRLSCAASGFTFDDYAMHWVRQAPGKGLEWVSGISWNSGSTGYADSVKGRFTISRDNAKNSLYLQMNSLRAEDTALYYCAKDSSSWYGGGSAFDIWGQGTMVTVSSGGGGSGGGGSGGGGSSSELTQEPAVSVALGQTVRITCQGDSLRSYYASWYQQKPGQAPVLVIFGRSRRPSGIPDRFSGSSSGNTASLIITGAQAEDEADYYCNSRDNTANHYVFGTGTKLTVL
Turning to B4, the IL-2 production entry in series [2] is reported as “produced IL-2”.
